Patent US20220098328A1, “ANTIBODIES TO M(H)DM2/4 AND THEIR USE IN DIAGNOSING AND TREATING CANCER” (NomoCan Pharmaceuticals LLC, priority 2017, published 2022)
Changes are numbered by the printed parent chain. “Also recorded” adds a separate entry of the source.

Columns and labels:
[1] = target: T1, recombinant HDM2 protein (GST tagged) (Homo sapiens, UniProt Q00987); experiment: Western blot (immunoblot); assay type: binding; conditions: 1 μg/well protein, antibody 1 μg/ml; band at approximately 83 kD
T1 construct: NMC-103, NMC-204 and NMC-303 reacted with the recombinant full-length HDM2 protein; purchased Abcam ab188727
T1 sequence (Q00987 whole entry): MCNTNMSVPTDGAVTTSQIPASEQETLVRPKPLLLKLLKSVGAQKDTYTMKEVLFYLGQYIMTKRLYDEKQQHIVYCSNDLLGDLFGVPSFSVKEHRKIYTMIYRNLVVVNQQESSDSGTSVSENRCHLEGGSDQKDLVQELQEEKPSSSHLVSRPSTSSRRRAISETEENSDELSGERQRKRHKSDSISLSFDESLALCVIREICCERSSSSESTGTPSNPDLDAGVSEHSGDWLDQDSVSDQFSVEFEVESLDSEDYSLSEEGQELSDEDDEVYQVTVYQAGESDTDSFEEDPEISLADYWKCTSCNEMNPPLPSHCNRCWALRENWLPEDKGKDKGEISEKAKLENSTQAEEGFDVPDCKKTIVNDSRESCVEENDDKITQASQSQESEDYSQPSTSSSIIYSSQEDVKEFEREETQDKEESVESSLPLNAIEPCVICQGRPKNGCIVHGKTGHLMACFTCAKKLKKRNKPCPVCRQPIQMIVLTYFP
Protocol: Western Blot: As for immunoblots, 1 μg/well of recombinant HDM2 protein (GST tagged, Abcam, Cat. No. ab188727) was separated on 8-16% sodium dodecyl sulfate (SDS) polyacrylamide gel and proteins were then transferred to polyvinylidene difluoride (PVDF) membrane. The membrane was blocked with 5% milk followed by incubation with monoclonal antibody NMC-103, NMC-204 or NMC-303 at 1 μg/ml in 1% milk in PBS for 2 hours. The membrane was then washed ×3 times (10 minutes each) and incubated for 1 hour with corresponding HRP-conjugated secondary antibody (Goat anti-Mouse IgG (H&L), F(ab′)2 Frag Cross-adsorbed HRP (HRP-GaM F(ab′)2), ThermoFisher, Cat. No. A24524) diluted 1:5000 in 1% BSA-PBS. The membrane was then washed ×3 times and incubated with Pierce ECL Plus Western Blotting Substrate (ThermoFisher, Cat. No. #32132) for 10 min before developing on a LICOR Scanner.

[2] = system: human triple negative breast cancer HCC1806 cells; experiment: Cell-ELISA on intact cells; assay type: cell-based; conditions: mAb 1 μg/mL, fixed, non-permeabilized cells
Protocol: (§1) Cell-ELISA Methodology: 8,000-10,000 cells/well of a 96-well microplate were grown overnight. The next day, unbound cells were washed off with sterile 1×PBS. The cells in each well were fixed with freshly prepared 4% buffered paraformaldehyde (pH 7.2) for 1 hour followed by 3 washes with 1×PBS. The wells were then blocked with 5% BSA in PBS (100 μl/well) for 2 hours at room temperature. Microplate wells were then washed 5 times with 300 μl of ice cold 1×PBS. MAbs NMC-103, NMC-204 or NMC-303 at 1 μg/mL in 1% BSA/PBS were then incubated with various cancer or normal untransformed cells for 2 hours at room temperature. Wells were then washed with 300 μl of ice-cold 1×PBS for 5 times and corresponding secondary antibody HRP-GaM F(ab′)2 diluted 1:2500 or 1:5000 in PBS with 1% BSA were added at 100 μl/well for 1 hour at room temperature followed by washing 5 times with 300 μl of ice-cold 1×PBS. TMB Substrate Solution (1-Step™ Ultra TMB-ELISA, ThermoFisher, Cat. No. 34028) was then added at 50 μL to each microplate well and incubated at room temperature for 30 minutes. The reaction was stopped by addition of 50 μL of stop solution (ThermoFisher, Cat. No. SS04) to each well and absorbance of each well was measured at OD450 nm. The absorbance value of each experimental well was corrected for the absorbance value obtained from wells treated with isotype-identical mAbs included in each experiment. The results are thus expressed as “relative binding”.

[3] = system: human uveal melanoma 92.1 cells; experiment: Cell-ELISA on intact cells; assay type: cell-based; conditions: mAb 1 μg/mL, fixed, non-permeabilized cells
Protocol: as §1

[4] = system: normal human peripheral blood mononuclear cells (PBMCs); experiment: Cell-ELISA on intact cells; assay type: cell-based; conditions: freshly isolated normal human PBMCs
Protocol: as §1

[5] = system: mouse Lewis Lung LL/2 cancer cells; experiment: Flow cytometry (EDTA vs trypsin, intact vs permeabilized); assay type: cell-based; conditions: for % cells stained: 5 μg/ml antibody; for staining of trypsin-treated permeabilized cells: reduction in binding after trypsin vs reactivity with intracellular target
Protocol: Flow Cytometry Methodology: Cells that had been allowed to grow to about 80% confluency in 25 cm^2 tissue culture flasks were released with either EDTA (10 mmols; pH7.2; 5 min, 37° C.) or Trypsin (Gibco TrypLE Express), fixed with freshly made 4% buffered (pH 7.4) paraformaldehyde for 1 h at room temperature, washed several times with a large volume of ice-cold PBS, and blocked for 30 minutes at room temperature with 5% human serum albumin in PBS (intact, non-permeabilized cells). After establishing viability, the cell number was adjusted to 10^6 cells/ml and kept in ice-cold PBS until staining. Another set of the same cells was released with either EDTA or Trypsin and fixed with 4% buffered paraformaldehyde as above, then washed and blocked with 5% human serum albumin in PBS, and was treated separately with Triton X-100 (0.1% in PBS) (International Biotechnologies Inc. 07100) for 5 minutes at room temperature for membrane permeabilization. After washing off the Triton X-100 solution with PBS the cells were adjusted to 10^6 cells/ml and stored in ice-cold PBS. Cells (10^6/ml) from each preparation were then incubated either with 5 μg/ml of mAb to Na+/K+ ATPase α-1 (Abcam, Cat. No. ab2826), 5 μg/ml of mAb NMC-103, or 5 μg/ml of mAb NMC-204 for 90 min at room temperature. Following primary antibody incubation, cells were washed 3 times with ice-cold PBS followed by incubation with rabbit anti-mouse PE-Cy5 labeled secondary antibody (PE-Cy5-RaM IgG (H&L); Invitrogen, Cat. No. M35018) at room temperature. Sixty minutes later the cells were washed 3 times with PBS and subjected to flow cytometry analysis (BD Canto Flow Cytometry). Controls to establish background fluorescence included the analysis of samples of unstained cells as well as cells that had been processed with secondary antibody under the same conditions as used in the experimental samples.
Cells that had been allowed to grow to about 80% confluency in 75 cm^2 tissue culture flasks were released with either EDTA (10 mmols; pH 7.2; 5 min, 37° C.) or Trypsin (Gibco TrypLE Express), washed several times with ice-cold PBS, and blocked for 20 minutes on ice with 5% human serum albumin in PBS (intact, non-permeabilized cells). After establishing viability, the cell number was adjusted to 10^6 cells/ml and kept in ice-cold PBS until staining. Cells were then incubated with primary antibodies NMC-H103 (VH4/VK3) or NMC-C303 (1 μg/ml) for 30 minutes on ice. Following primary antibody incubation, cells were washed 3 times with ice-cold PBS, followed by incubation with goat anti-human PE labeled secondary antibody (Life technologies H10104) on ice for 20 minutes. Cells were then washed 3 times with PBS and incubated with 7AAD (5 μl/[…] of buffer) before flow cytometry analysis using Fortessa 5.

[6] = EDTA-treated permeabilized cells (Triton X-100)

B1: NMC-204: mouse monoclonal antibody of the IgG3 isotype that binds to NMC-P2 (SEQ ID NO:2); VH SEQ ID NO:38, VL SEQ ID NO:39 (antibody, V domains shown)
VH: EVQLQESGSVLVRPGASVKLSCKASGDTLSGSWMHWAMQRPGQGLEWIGEIHLNRGTTNYNEKFKGKATVTVDTSSSTAYVDLSSLTSEDSAVYYCARSPGFAYWGQGTLVTVSA
VL: GIVMTQAAPSVPVTPGESVSISCRSSKSLLHSNGNSYLYWFLQRPGQSPQLLIYRMSNLASGVPDRFSGSGSGTAFTLRITRVEAEDVGVYYCMQHLEYPFTFGSGTKLEIK
modifications: mAb NMC-204 Heavy Chain Variable Region; mAb NMC-204 Light Chain Variable Region
- reactivity with recombinant full-length HDM2-GST protein (immunoblot) [1]: reacted
- relative binding (reactivity) to intact cells, cell-ELISA [2]: reactivity
- relative binding (reactivity) to intact cells, cell-ELISA [3]: reactivity
- binding to intact normal cells, cell-ELISA [4]: did not react; also recorded: virtually no binding
- % cells stained ([5]; EDTA-treated intact cells): 51.2%
- % cells stained [5, 6]: 52.85%
- staining of trypsin-treated permeabilized cells [5]: compensated
- % cells stained ([5]; trypsin-treated intact cells): 27%

B2: NMC-103: mouse monoclonal antibody of the IgG1 isotype that binds to NMC-P1 (SEQ ID NO:1); VH SEQ ID NO:36, VL SEQ ID NO:37 (antibody, V domains shown)
VH: EVQLQESGGGLVQPGGSLRLSCTTSGFTFTHYYMSWVRQPPGKALEWLGFIRNKAKGYTAEYSASVKGRFTISRDNSQSILYLQMNTLRPEDSATYYCARDIGDNWGQGTLVTVSS
VL: DIVMTQAAFSNPVTLGTSASISCRSSKNLLHSNGITYLYWYLQRPGQSPQLLISRVSNLASGVPNRFSGSESGTDFTLRISRVEAEDVGVYFCAQLLELPYTFGGGTKLEIK
modifications: mAb NMC-103 Heavy Chain Variable Region; mAb NMC-103 Light Chain Variable Region
- reactivity with recombinant full-length HDM2-GST protein (immunoblot) [1]: reacted
- relative binding (reactivity) to intact cells, cell-ELISA [2]: reactivity
- relative binding (reactivity) to intact cells, cell-ELISA [3]: reactivity
- binding to intact normal cells, cell-ELISA [4]: virtually no binding
- % cells stained ([5]; EDTA-treated intact cells): 70.4%
- % cells stained [5, 6]: 75.8%
- staining of trypsin-treated permeabilized cells [5]: compensated
- % cells stained ([5]; trypsin-treated intact cells): 36.8%

B3: NMC-H103 (VH4/VK3): humanized NMC-103 variant, human IgG1, VH4 (SEQ ID NO:299) and VK3 (SEQ ID NO:297) (antibody, V domains shown)
VH: B2 VH with Q5V, G16P, P40A, A44G, Q78K, I80T, T87S, P90A, S93T, T95V
VL: B2 VL with A7T, A8P, F9L, N11S, T17Q, S18P, R44K, N65D, R79K, L109V
modifications: human IgG1 constant regions lacking entries; mAb NMC-H103.VH4Heavy Chain Variable Region; mAb NMC-H103.VK3Light Chain Variable Region
- binding to live cells briefly treated with trypsin, flow cytometry ([5]; 7AAD negative): reduced
- binding to live (7AAD negative) cells, flow cytometry ([5]; antibody 1 μg/ml): binding
